Experimental data taken from patent publication US20240026407A1, “MODIFICATION OF SAPONINS” (GLAXOSMITHKLINE BIOLOGICALS SA, priority 2020, published 2024).

Assays:
Type in all cases: biochemical, Quillaja saponaria
[1] = Experiment 4-1: screening of glucosidases for deglycosylation with purified QS-18 (0.04 mg/ml) at pH 7.5 and room temperature; details: pH 7.5, room temperature, 20 h, clarified E. coli lysate, QS-18 2150 to QS-21 1988 by LCMS/MS
Method in brief: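 Candidate glucosidases expressed in E. coli BL21(DE3) (pET24b+, autoinduction, 20 °C for 20 h); clarified lysates in 100 mM potassium phosphate pH 7.5 incubated with QS-18 (0.04 mg/ml final) 20 h at room temperature. Quenched with MeCN, analysed by LC-MS/MS for % conversion; hits >3 S.D. above negative control.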

[2] = Experiment 4-4: screening of glucosidases for deglycosylation of QS-18 in crude bark extract (1 in 20 dilution) to QS-21; details: CBE 1 in 20 dilution, pH 6, 25 degC, 18 hours; % conversion of Middle Peak by UV HPLC
Method in brief: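 Clarified glucosidase lysates were incubated with pH 6 crude bark extract (1 in 20) in potassium phosphate buffer pH 6 for 18 h at 25 °C with shaking, then quenched with MeCN. UV HPLC with MS/MS-supported peak identity; activity is % conversion of the extract's Middle Peak (QS-18 family) toward the QS-21 peak.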

[3] = Experiment 4-2: screening of glucosidases for deglycosylation with purified QS-18 (1 mg/ml) at pH 6 and 30 deg C; details: pH 6, 30 degC, 18 hrs, clarified lysate, LCMS/MS
Method in brief: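 Clarified lysates of glucosidase-expressing cells in 100 mM potassium phosphate pH 6 were incubated 18 h at 30 °C with QS-18 at 1 mg/ml final. Reactions quenched with MeCN; deglycosylation activity determined by LC-MS/MS.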

Row | Molecule | Expt 4-1 % conv [1] | Expt 4-4 % conv [2] | Expt 4-2 % conv [3]
1 | 365 (protein, Candidatus microthrix) MEDDGANSKTELSDQRKVALLSGADDWHTEAVPELGLEAVMMADGPHGLRKVMSASLADLQASEPATCFPTGSALAATWDRVLAGDVGRAIGREAVAEGVGVVLGPAVNLKRHPAAGRNFEYFSEDPFLAGELAVAWIDGVQGEGVGASLKHFAVNNQEANRMVVDAVVDPATLRELYLGAFEAAVRRSRPWTVMSAYNLLNGVYCSEDPWLLSELLRDQWGFDGLVVTDWGANDDRVAGIRAGQDLEMPGGHGTHDAAVLAALADGSLHRADLDGCVRRVLALLERADGARSGRPGSAMASPRPGADPDALHREHHQLARRAAAAGTVLLTNDGTLPLAPSGHVALIGEFAAHPRFQGGGSSQVKATRSDNLHAELRTHVDAAGGRVQYAPGYVLRARDDRPGEPARRVDEAVSIARGAEVAVVVVGLPDAVESEGFDRDHLHLPESHNILVRAVCAANPNTVVIVVAGSPVTMDWVDQPAAIIHGYLGGQAAGGALADVLVGAAEPGGRLAETFPVRSAGVASDRWFPGEPHQVTYREGPYIGYRWFDASGATPLFPFGHGLSYAEITLGVPTLSAQHVDAGVLLGGTDVVAPAEVPPPGAGPVAFTVTVPLTNAGDRAGSEVVQVYLESPDTGRPAAHRHLVGFAKVNLEPNSTREATVDVHARALCHWHPADRGWAVSAGTWGVAVGCSSGNLPHGLMVEVASSWSAPEPDPALDPYRNPRPDDWDPGVAAFEALLGRSVPEPTPVRPFTRNTTLGELGETRLGRPLLALVRAIVAHTTGGAHDEGGLGAMIDRSLGELPLRNLAVMSQGRVPMSAINRLIALANRMPGHPAGHPPGRPPGRSVGFTRPGRRR | 1.3% | <3% | 0.4%
2 | 63 (protein, listed as Gynuella sunshinyii) MFDPVTILKQLNREEKVQLLCGLDAWHLHGVERLGIPSITLTDGPHGVRLAQSHDVFDSVDATVFPVEAAMAATWNVGLIKELAGAIAKECQQLGVSVLLGPGVNGKRSPLGGRNFEYFSEDPYLTGAMASNFVEGVQSQGVGACLKHFAGNEQETRRFLINSVIDERTLQEMYIAPFAKAIRESRPWTVMGAYNSVNGQFACQNSHLLQDILRDQLGFDGLVMSDWGAVGDKVACHQHGLDLEMPGPADRDQQLLDALDNGDMSEVVLDSRVLKVLELIHKSVTHKRDVQVDFERHHELAIEVACDSAVLLKNSGNLPLDKSRSIGLIGQFAKHPRFQGGGSSHMNPRHLSNAFEAFCSRAEVSWAMGYEELEMTDEMLREAVALAKRVDQVVLLTGTTDALESEGFDRSNMRLPEAHVELIKAVYQTNSNVVVVMYAGSALETRQIEDYAPSLMHAWLPGEGGGEALARLLFGEVSPSGKLSETFPVRLEHNPTYESFPGNKADTIYNEGIFTGYRYYDTKKLPVQYPFGYGLSYTSFAYSDLSYDASCREVAVNVTNIGDMAGAEVVQVYIHDEHSTLRRPDQELKGFAKVMLQPGETQRVSIALDEQAFAYFVTHLQRFAEESGRFEIRVGSSSRDIHESLWIELESDIECRQIPTLNDTVEDWLRDDRTRPILEDAFAQVGFTKDHSFYALTLGFPMTLLKKFMPMMGLTEQQCESLKDKLGLE | 95.6% | <3% | 54.2%
3 | 176 (protein, listed as Streptomonospora sp.) MTTANRAAHAADAAREPQVEAALARLDLDGRIRLLSGATMWAIAPNPDIGLERLVMSDGPVGVRGEHWTPDDPALQLPSPTALAATWDTELIRTVGRTLAQEARRKGVHVLLAPTVNIHRSPLGGRHFECYSEDPLLTGRIGTAYVDGVQDGGVGTTVKHFVANDSETDRFTVDVRVDERTLREIYLAPFEAIVDGARPWGVMAAYNGVNGTTMTEHARLNAVLRDEWGFDGFIVSDWTAARDTVGCALAGMDVAMPGPSTVYGENLRAAVREGRVPEGAVEAMARRVLRLAARVGALEGAEPAVAPAALPPAIDGRAVAREAAARSFTLLRNEGRALPIDPARVGSVALIGLAADEARTSGGGSATVFTEHTVSPREGLRAALPESVRLDYAVGADPRASLPPLAGPLTAAFRDADGTVLATERLADGTARWIGELPDGVTAEGLSTIEVSGTLTPAYTGTHVFGAKGVGHFRLAVGGRVGFDGVNEVDGDDPGAGFLNPPESTAEFALTAGEAVEVSVVATVPGVSADFAFIGFSLNHSEPRAGDDELIEEAVRTAAGADVAIVIAATTEEVESEGFDRDSLELPGRQDELVSRVAAANPRTVAVVNTGSPVVMPWRGDVAAVLLTWFGGQELGAALADVLLGAEEPGGRLPTTWPAEQADVPVIGVRPDGGVLEYSEGVFVGYRAWQRLGAEPAYWFGHGLGYTTWDYTGADAAVRLDGGVSVTARLANTGARRGREVVQVYVSPQEEGGAPERPRRWLAGFAPVVAEPGASAEAVVEVPARAFQVWDSAAHDWRTVPGGYDVLVGRSVADTPVSARVEIAG | 1.2% | <3% | 0.4%
4 | 229 (protein, listed as Nectria haematococca) MASVDIPAILATLSLEEKVSLLAGKNLWETVPVPSKGVPNVKVSDGPNGARGASFAGGTTAACFPAACLMASTFDVKLAKRIGSALAEETQSKGARCLLAPTMCLHRHPLGGRNFESFSEDPLLTGKMAARVVEGLQDKGVSATIKHFAVNEQETDRLTVDETVNERALRELYLRPFEIAVKEANPWAVMTAYNKINGHHADCHPFTLKKVLRGDWGWNGLVMSDWGGTNSTPDSLEAGLDLEMPGPTRWRKPEDVIAAIKEGKTSEKTIDERATNVLRFLERLGCFKDPTIPDEKAINKPEHQALIREAGSKGIVLLKNQDKILPLSKEKVKGKKIALLGHAKIGLAHGGGSASVSAHYKVTPWDALHEALGDSVEFSYAKGAHTFRTLPAIAENVVGLDGKPGFTFKVYEPGSSEPIETRHGHADSEVSALGSFGFLNKDVSLEGAFTPQETAQYYFTCSGLGPSKLIIDDKVVYEQTENCSDAMGFLFGGVAAPEFKVALEAGRQYKLVLRTSPPSANDREDLGILEGLCGLRVGSMSESEHDRDLVSEAVEVAKNADYAVIFTGHEPFWETEGQDQVSFNLPKDGSQDRLISAVAAANPNTVVVNSTGVAIAMPWLNEIQGFLQTWYPGQECGNSIADVLTGAQTPEGHLTCTFPKKIEDCPAYGNFPGEYDNGKLKVTYKEGVFIGYRHFDRLPADKVNFPFGFGLSYTTFDFSSLEVKESGEGYTASLKVSNTGDVVGAIAVQVYVGAAQTAEENPVKQLVAFEKVTVKPGETASVEVPVRTRDFGFFDESKQKWVVKGGDYKFLIGKSARDIVLESTVAVKEQSFDL | 91.1% | <3% | 14.2%
